Measurements taken from IntAct's records for PubMed 19130088.

B1: Calcium-dependent protein kinase 4 (Arabidopsis thaliana (Mouse-ear cress)), Q38869 (parent)
chain: MEKPNPRRPSNSVLPYETPRLRDHYLLGKKLGQGQFGTTYLCTEKSSSANYACKSIPKRKLVCREDYEDVWREIQIMHHLSEHPNVVRIKGTYEDSVFVHIVMEVCEGGELFDRIVSKGCFSEREAAKLIKTILGVVEACHSLGVMHRDLKPENFLFDSPSDDAKLKATDFGLSVFYKPGQYLYDVVGSPYYVAPEVLKKCYGPEIDVWSAGVILYILLSGVPPFWAETESGIFRQILQGKIDFKSDPWPTISEGAKDLIYKMLDRSPKKRISAHEALCHPWIVDEHAAPDKPLDPAVLSRLKQFSQMNKIKKMALRVIAERLSEEEIGGLKELFKMIDTDNSGTITFEELKAGLKRVGSELMESEIKSLMDAADIDNSGTIDYGEFLAATLHINKMEREENLVVAFSYFDKDGSGYITIDELQQACTEFGLCDTPLDDMIKEIDLDNDGKIDFSEFTAMMKKGDGVGRSRTMRNNLNFNIAEAFGVEDTSSTAKSDDSPK
partner: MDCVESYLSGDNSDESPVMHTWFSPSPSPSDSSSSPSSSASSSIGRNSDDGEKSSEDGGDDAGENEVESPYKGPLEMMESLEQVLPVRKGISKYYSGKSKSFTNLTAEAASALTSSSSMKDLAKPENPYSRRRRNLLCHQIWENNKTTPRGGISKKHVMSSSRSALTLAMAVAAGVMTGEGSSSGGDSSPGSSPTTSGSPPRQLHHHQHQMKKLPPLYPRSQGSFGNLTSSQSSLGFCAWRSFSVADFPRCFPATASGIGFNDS

Variants of: B1
Settings: with o3l1_arath O3L1, Q9C593

| Variant | effect of a mutation on the interaction |
| --- | --- |
| D149A | disrupting interaction |
| D149A;F305A | disrupting interaction |
| D170A | disrupting interaction |
| D170A;F305A | disrupting interaction |
